{"source": "patent US11707610B2", "about": "“Ingestible device for delivery of therapeutic agent to the gastrointestinal tract” (BIORA THERAPEUTICS, INC., priority 2019, dated 2023)", "origin": "cited, not measured here", "key": {"[1]": {"settings": "for bioavailability: by SC injection; for Approved Dosing Info: Bio Avail: Table 16, approved injection, Admin SC"}, "[2]": {"settings": "self-administration of 360,000 units, medical observation"}}, "note": "Read-outs that look alike come from different tables or passages of the source."}
{"substance": "Dalteparin", "values": [{"measurement": "bioavailability", "setting": "[1]", "value": "approximately 87%"}, {"measurement": "primary mode of elimination", "setting": "[1]; in vivo", "value": "kidneys"}, {"measurement": "stability at room temperature", "setting": "room temperature", "value": "stable"}, {"measurement": "outcome of overdose", "setting": "[2]", "value": "no notable sequelae"}]}
{"substance": "Human Growth Hormone [Genotropin ®]", "values": [{"measurement": "Storage temperature: time after reconstitution", "setting": "2-8° C., after reconstitution", "value": "2-8 °C 4 weeks"}]}
{"substance": "adalimumab", "values": [{"measurement": "Approved Dosing Info: Bio Avail", "setting": "[1]", "value": 64, "unit": "%"}, {"measurement": "bioavailability", "setting": "[1]", "value": 64, "unit": "%"}, {"measurement": "bioavailability", "setting": "[1]; listed as Adalimumab", "value": "approximately 64%"}, {"measurement": "half-life", "setting": "[1]; in vivo", "value": "approximately 2 weeks"}, {"measurement": "primary mode of elimination", "setting": "[1]; in vivo", "value": "intracellular catabolism"}]}
{"substance": "certolizumab-pegol [Cimzia ®]", "values": [{"measurement": "Storage temperature: time at room temp", "setting": "room temp", "value": 2, "unit": "hrs at"}]}
{"substance": "etanerecpt [Embrel ®]", "values": [{"measurement": "Storage temperature: time at 25° C.", "setting": "25° C.", "value": 14, "unit": "days"}]}
{"substance": "infliximab [Remicade ®]", "values": [{"measurement": "Storage temperature: time at 30° C.", "setting": "30° C.", "value": "to 12 months"}]}
{"substance": "semaglutide [compound 4]", "values": [{"measurement": "Approved Dosing Info: Bio Avail", "setting": "[1]", "value": 89, "unit": "%"}]}
